Data: patent US20230138315A1 (JIANGSU HENGRUI MEDICINE, published 2023)
Positions count from the first letter of the chain named. Names may count otherwise.

T1: cynomolgus monkey ANGPTL3(17-460)-His (cynomolgus monkey, UniProt Q9Y5C1 17-460 (human entry), biotin-labelled in the ELISA and HTRF assays (sites not given))
T1 construct: also called full-length cynomolgus monkey ANGPTL3; Cyno ANGPTL3
T1 chain: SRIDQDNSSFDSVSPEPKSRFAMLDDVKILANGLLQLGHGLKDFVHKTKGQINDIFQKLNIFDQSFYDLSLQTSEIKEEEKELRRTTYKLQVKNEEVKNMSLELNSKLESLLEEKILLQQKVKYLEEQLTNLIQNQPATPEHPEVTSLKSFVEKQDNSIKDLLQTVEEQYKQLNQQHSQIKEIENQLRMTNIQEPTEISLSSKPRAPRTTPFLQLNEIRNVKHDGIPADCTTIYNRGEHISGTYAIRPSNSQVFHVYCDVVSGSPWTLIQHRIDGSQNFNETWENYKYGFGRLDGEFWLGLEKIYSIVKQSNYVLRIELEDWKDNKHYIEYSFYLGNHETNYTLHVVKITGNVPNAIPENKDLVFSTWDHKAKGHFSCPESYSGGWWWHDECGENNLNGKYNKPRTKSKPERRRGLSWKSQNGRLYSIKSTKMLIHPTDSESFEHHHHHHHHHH

T2: rat ANGPTL3(17-455)-His (rat, biotin-labelled in the ELISA and HTRF assays (sites not given))
T2 construct: also called full-length rat ANGPTL3
T2 chain: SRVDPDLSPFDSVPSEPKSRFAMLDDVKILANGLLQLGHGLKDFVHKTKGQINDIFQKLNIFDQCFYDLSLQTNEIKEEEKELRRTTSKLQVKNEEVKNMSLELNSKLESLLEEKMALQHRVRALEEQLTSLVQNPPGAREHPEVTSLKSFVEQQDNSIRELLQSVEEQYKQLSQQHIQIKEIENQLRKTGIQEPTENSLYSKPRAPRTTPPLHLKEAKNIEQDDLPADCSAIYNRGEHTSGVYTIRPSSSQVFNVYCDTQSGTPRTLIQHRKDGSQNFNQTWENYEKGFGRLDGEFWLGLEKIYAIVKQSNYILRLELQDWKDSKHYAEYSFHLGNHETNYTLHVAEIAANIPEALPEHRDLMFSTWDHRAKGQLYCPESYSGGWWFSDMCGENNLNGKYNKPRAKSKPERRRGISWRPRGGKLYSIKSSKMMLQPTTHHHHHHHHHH

T3: mouse ANGPTL3(17-455)-His (mouse, UniProt Q9R182 17-455, biotin-labelled in the ELISA and HTRF assays (sites not given))
T3 construct: also called full-length mouse ANGPTL3
T3 sequence: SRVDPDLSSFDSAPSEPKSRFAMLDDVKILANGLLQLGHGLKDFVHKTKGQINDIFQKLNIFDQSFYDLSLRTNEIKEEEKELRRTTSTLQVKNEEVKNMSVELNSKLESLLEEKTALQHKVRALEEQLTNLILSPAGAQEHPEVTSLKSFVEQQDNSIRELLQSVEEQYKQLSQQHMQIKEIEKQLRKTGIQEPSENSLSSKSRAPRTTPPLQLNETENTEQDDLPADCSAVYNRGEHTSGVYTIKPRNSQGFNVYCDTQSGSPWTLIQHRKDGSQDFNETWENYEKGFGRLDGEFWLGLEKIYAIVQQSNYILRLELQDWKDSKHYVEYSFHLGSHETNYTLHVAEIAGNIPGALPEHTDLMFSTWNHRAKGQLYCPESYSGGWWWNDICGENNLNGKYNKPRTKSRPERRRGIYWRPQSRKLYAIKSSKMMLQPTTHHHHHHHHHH

B1: P8G (antibody, human IgG4 S228P, kappa, V domains shown)
VH: QVQLVQSGAEVKKPGASVKVSCKASGYTFTSYDINWVRQAPGQGLEWVGLINPRDDSTSYAQKFQGRVTMTRDTSTSTMYMELSSLRSEDTAVYFCARDLGSIREVLYYGMDVWGQGTTVTVSS
VL: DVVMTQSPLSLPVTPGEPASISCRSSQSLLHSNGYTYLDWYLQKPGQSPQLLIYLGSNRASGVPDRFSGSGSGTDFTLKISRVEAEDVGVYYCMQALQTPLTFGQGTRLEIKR
notes: also called anti-ANGPTL3 antibody P8G; P8 (variable regions)
B2: P8BG (antibody, human IgG4 S228P, kappa, V domains shown)
VH: B1 VH with D55E
VL: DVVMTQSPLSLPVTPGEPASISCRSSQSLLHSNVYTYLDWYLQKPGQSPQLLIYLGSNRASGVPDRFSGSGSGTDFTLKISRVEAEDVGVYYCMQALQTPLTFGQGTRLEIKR
notes: also called anti-ANGPTL3 antibody P8BG; P8B (variable regions)
B3: P3G (antibody, human IgG4 S228P, kappa, V domains shown)
VH: QVQLVQSGAEVKKPGASVKVSCKSSGYTFTDYYLHWLRQAPGQGPEWMGWISPNSGGTSYAQKFQGRVTMTRDTSISTAYMELSSLRSDDTAVYYCARDIATLGNFFTYGMDVWGQGTTVTVSS
VL: DIQLTQSPSSLSASVGDRVTITCRASQGIRNDLGWYQQKPGKAPKLLIYAASSLQSGVPSRFSGSGSGTDFTLTISSLQPEDFATYYCQQSYSSWTFGQGTKVEIKR
notes: also called anti-ANGPTL3 antibody P3G; P3 (variable regions)

Target: T1, cynomolgus monkey ANGPTL3(17-460)-His
Assay: ELISA; biotin-labelled antigen on streptavidin-coated plate
Protocol: (§1) An anti-ANGPTL3 antibody inhibited or interfered with at least one activity of an ANGPTL3 protein by binding to the ANGPTL3 protein. The binding activity of the anti-ANGPTL3 antibody to the ANGPTL3 antigen was tested by an ELISA assay. The ANGPTL3 protein (human ANGPTL3(17-170)-mFc) was immobilized on a 96-well microplate by binding to the goat anti-mouse IgG coated on the microplate, and the binding activity of the antibody to the ANGPTL3 was determined according to the intensity of the signal after the antibody was added.
(§2) Streptavidin (Sigma, S4762-5MG) was diluted to a concentration of 3 μg/mL with PBS buffer (Shanghai BasalMedia, B320, pH 7.4), added to a 96-well microplate (Corning, CLS3590-100EA) at 50 μL/well, and then incubated in an incubator at 37° C. for 3 h or incubated at 4° C. overnight (16-18 h). After the liquid was discarded, a PBS-diluted 5% skim milk (BD, 232100) blocking solution was added at 250 μL/well, and the mixture was incubated in an incubator at 37° C. for 3 h or incubated at 4° C. overnight (16-18 h) for blocking. […] The mixture was incubated in an incubator at 37° C. for 2 h. After the incubation was finished, the reaction solution in the microplate was discarded. The plate was washed 3 times with PBST, and then a test antibody that was diluted with a sample diluent to different concentrations was added at […]. The mixture was incubated in an incubator at 37° C. for 2 h.

| Binder | EC50 |
| --- | --- |
| B1 | 2.53 nM |
| B2 | 0.2 nM |
| B3 | 4.55 nM |

Target: T2, rat ANGPTL3(17-455)-His
Assay: as above
Protocol: as §1, §2

| Binder | EC50 |
| --- | --- |
| B1 | 2.12 nM |
| B2 | 0.528 nM |
| B3 | 1.44 nM |

These binders were tested against T3, mouse ANGPTL3(17-455)-His in the same assay as above.
Protocol: as §1, §2

| Binder | EC50 |
| --- | --- |
| B1 | 1.73 nM |
| B2 | 0.105 nM |
| B3 | 1.63 nM |
